# Starred links: 1 amine or outer side, 2 acyl side, 3 side chain; linkers in the order of their positions; H or OH if unused. Non-standard residues stand in square brackets, D forms with d. No end group written: not given here. *: point of attachment. 4‑nitrohippuryl = O=C(NCC(=O)*)c1ccc([N+](=O)[O-])cc1; Benzoyl(4-(pyrrol-1-yl)) = O=C(c1ccc(-n2cccc2)cc1)*; bis(2,3-dihydroxybenzyl) = not defined here; 10‑hydroxydecanoyl = O=C(CCCCCCCCCO)*; Cysteamide = C(CS[*:3])N[*:1]; Dap = NC[C@H](N)C(=O)O
# T1: acetyl-Pro-Arg-Lys-Arg-Glu-Gly-Ser-Val-Arg-Arg-Arg-NH2
# T1 chain: PRKREGSVRRR
# B1: protein kinase C ε (protein)
# chain: MVVFNGLLKIKICEAVSLKPTAWSLRHAVGPRPQTFLLDPYIALNVDDSRIGQTATKQKTNSPAWHDEFVTDVCNGRKIELAVFHDAPIGYDDFVANCTIQFEELLQNGSRHFEDWIDLEPEGRVYVIIDLSGSSGEAPKDNEERVFRERMRPRKRQGAVRRRVHQVNGHKFMATYLRQPTYCSHCRDFIWGVIGKQGYQCQVCTCVVHKRCHELIITKCAGLKKQETPDQVGSQRFSVNMPHKFGIHNYKVPTFCDHCGSLLWGLLRQGLQCKVCKMNVHRRCETNVAPNCGVDARGIAKVLADLGVTPDKITNSGQRRKKLIAGAESPQPASGSSPSEEDRSKSAPTSPCDQEIKELENNIRKALSFDNRGEEHRAASSPDGQLMSPGENGEVRQGQAKRLGLDEFNFIKVLGKGSFGKVMLAELKGKDEVYAVKVLKKDVILQDDDVDCTMTEKRILALARKHPYLTQLYCCFQTKDRLFFVMEYVNGGDLMFQIQRSRKFDEPRSRFYAAEVTSALMFLHQHGVIYRDLKLDNILLDAEGHCKLADFGMCKEGILNGVTTTTFCGTPDYIAPEILQELEYGPSVDWWALGVLMYEMMAGQPPFEADNEDDLFESILHDDVLYPVWLSKEAVSILKAFMTKNPHKRLGCVASQNGEDAIKQHPFFKEIDWVLLEQKKIKPPFKPRIKTKRDVNNFDQDFTREEPVLTLVDEAIVKQINQEEFKGFSYFGEDLMP
# B2: Compound C (peptide)
# peptide: Ac-RRQG[Dap](4‑nitrohippuryl)FMYF-Cysteamide
# SMILES: CSCC[C@H](NC(=O)[C@H](Cc1ccccc1)NC(=O)[C@H](CNC(=O)CNC(=O)c1ccc([N+](=O)[O-])cc1)NC(=O)CNC(=O)[C@H](CCC(N)=O)NC(=O)[C@H](CCCNC(=N)N)NC(=O)[C@H](CCCNC(=N)N)NC(C)=O)C(=O)N[C@@H](Cc1ccc(O)cc1)C(=O)N[C@@H](Cc1ccccc1)C(=O)NCCS
# Legend:
# a subset of other PKCs = test: cell-based or functional assay
# [1] = target: T1, acetyl-Pro-Arg-Lys-Arg-Glu-Gly-Ser-Val-A …
# [2] = target: protein kinase C δ, Q05655; test: cell-based or functional assay
# other PKC isoforms = test: cell-based or functional assay
binder,measurement,setting,value
Ac-RRQG[Dap](10‑hydroxydecanoyl)FMYF-Cysteamide [Compound B],selectivity for PKC ζ versus a subset of other PKCs,a subset of other PKCs,< 10 fold
B1,Km of the peptide substrate,[1],5.9 µM (PKCε)
H-RRQG[Dap]FMYF-Cysteamide (not fully specified (residue 5)) [Compound E (nonacylated free amine)],"IC50, PKC kinase assay (33P, peptide substrate)",[2],0.025 µM
same,Selectivity (IC50 relative to PKC βI = 1),[2],3.1 fold
B2,selectivity for PKC ζ versus a subset of other PKCs,a subset of other PKCs,< 10 fold
Ac-RRQG[Dap](Ac)FMYF-Cysteamide [Compound A (diacetylated consensus derivative)],"IC50, PKC kinase assay",[2],50 µM
ARRGALR[Dap](Benzoyl(4-(pyrrol-1-yl)))A-Cysteamide (also: further groups not given here) [compound 6 (primary lead from library IV)],selectivity for PKCα versus this isoform,[2],2730 fold
Ac-ARRGALR[Dap](Benzoyl(4-(pyrrol-1-yl)))A-Cysteamide [compound 3 (lead from library III)],selectivity for PKCα versus other PKC isoforms,other PKC isoforms,< 3 fold
"{bis(2,3-dihydroxybenzyl)}-RRQG[Dap](4‑nitrohippuryl)FMYF-Cysteamide (reading uncertain) [Compound G (doubly alkylated analogue of F)]","Fold selectivity (IC50), PKC ζ = 1",[2],693 fold
same,"IC50, PKC kinase assay (33P, peptide substrate)",[2],5.2 µM
